Assay results published in the supplement of paper PMC9170038.

System: MS2 coat protein
Assay: apparent KD of MS2 coat protein; designed switch direction (-1 OFF switch, 1 ON switch): -1; higher = weaker reporter binding
Outline: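 An oligonucleotide input, 200 uM small-molecule ligand, or no input was present during titration of SNAP-549-labelled MS2 coat protein, which was doubled from 0.7 or 1.5 nM to 3 µM. Designed RNA switches had been transcribed on Illumina chips by stalled E. coli RNA polymerase. Apparent KD per design is the median over clusters of curves fitted to normalised cluster fluorescence.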

[1] = input ligand: microRNA oligo, concentration not stated
[2] = Eterna round: R95, input ligand: FMN 200 uM
[3] = Eterna round: R95, input ligand: microRNA oligo, concentration not stated
[4] = Eterna round: R95, input ligand: none

Row | Sequence | apparent KD of MS2 coat protein (input ligand: FMN 200 uM) | apparent KD of MS2 coat protein (input ligand: none) | apparent KD of MS2 coat protein [1] | apparent KD of MS2 coat protein [2] | apparent KD of MS2 coat protein [3] | apparent KD of MS2 coat protein [4]
1 | UUUAAGUAAGGAUAUGCGAGCCACGGAAAUAAAACGUGGAGGUAGAAGGUACAUGAGGAUCACCCAUGUAAAAC [Mod of Anonveat 23 - Jieux - Exclusion 4] (Eterna round: R97, puzzle: Exclusion 4) | 21.8 nM | 23.1 nM | – | – | – | –
2 | UUUAAUUGUCAGAUGGGUGACAUGAGGAUCACCCAUGUCACAAGCUUUUUGUUCGUCUUAUAAUUAACCCAUCUGAC [Stov1/11-B1] (Eterna round: R97, puzzle: Sensor, turn-off variant 1) | 14 nM | 13.8 nM | – | – | – | –
3 | UUUAAUUUAAUUAAGAUCACAUGAGGAUCACCCAUGUAAUUAUAGGAUAUCAGCUCGAUUAGAGCUGAGAAGGAUAAUUACAUA [ExNG3/5-A1] (Eterna round: R96, puzzle: Exclusion NG 3) | 105 nM | 58.1 nM | 75.1 nM | – | – | –
4 | UUUAAUUUAAUUAAGAUCACAUGAGGAUCACCCAUGUAAUUAUAGGAUAUCAGCUCGUUUAGAGCUGAGAAGGAUAAUUACAUA [ExNG3/5-A2] (Eterna round: R96, puzzle: Exclusion NG 3) | – | – | 23.8 nM | – | – | –
5 | UUUAAUUUUUUUUUUUUACAAGCUUUUUGCUCGUCUUAUACAUGAGGAUCACCCAUGUAAAUGGGAAGUAAAUUAUC [JMF 50] (puzzle: Sensor v3, turn-off variant 2) | – | – | – | 59.5 nM | 207 nM | 93.1 nM
6 | UUUAAUUUUUUUUUUUUACAAGCUUUUUGCUCGUCUUAUACAUGAGGAUCACCCAUGUAAGUGAGGGAUAAAUUAUC [JMF 40] (puzzle: Sensor v3, turn-off variant 2) | – | – | – | 15.6 nM | 22.8 nM | 15.6 nM
7 | UUUAAUUUUUUUUUUUUACAAGCUUUUUGCUCGUCUUAUACAUGAGGAUCACCCAUGUAAGUGGAGGAUAAAUUAUC [JMF 33] (puzzle: Sensor v3, turn-off variant 2) | – | – | – | 24.7 nM | 23.8 nM | 24.1 nM
8 | UUUAAUUUUUUUUUUUUACAAGCUUUUUGCUCGUCUUAUACAUGAGGAUCACCCAUGUAAGUGGGAAGUAAAUUAUC [JMF 54] (puzzle: Sensor v3, turn-off variant 2) | – | – | – | 48.3 nM | 184 nM | 83.8 nM
9 | UUUAAUUUUUUUUUUUUACAAGCUUUUUGCUCGUCUUAUACAUGAGGAUCACCCAUGUAGAUGGAGGAUAAAUUAUC [JMF 32] (puzzle: Sensor v3, turn-off variant 2) | – | – | – | 14.4 nM | 28.9 nM | 15.2 nM
10 | UUUAAUUUUUUUUUUUUACAAGCUUUUUGCUCGUCUUAUACAUGAGGAUCACCCAUGUGAGUGGAAGAUAAAUUAUC [JMF 11] (puzzle: Sensor v3, turn-off variant 2) | – | – | – | 15.1 nM | 15 nM | 17.9 nM
11 | UUUAAUUUUUUUUUUUUACAAGCUUUUUGCUCGUCUUAUACAUGAGGAUCACCCAUGUGGAUGGGAGAUAAAUUAUC [JMF 19] (puzzle: Sensor v3, turn-off variant 2) | – | – | – | 30.9 nM | 164 nM | 36.4 nM
12 | UUUAAUUUUUUUUUUUUACAAGCUUUUUGCUCGUCUUAUACAUGAGGAUCACCCAUGUGGGUAAAGGAUAAAUUAUC [JMF 25] (puzzle: Sensor v3, turn-off variant 2) | – | – | – | 31.6 nM | 39.1 nM | 34.1 nM
13 | UUUAAUUUUUUUUUUUUACAAGCUUUUUGCUCGUCUUAUACAUGAGGAUCACCCAUGUGGGUGAAAAGUAAAUUAUC [JMF 44] (puzzle: Sensor v3, turn-off variant 2) | – | – | – | 22.4 nM | 18.7 nM | 33.1 nM
